According to article PMC10783487:
Numbering of substitutions follows the chain as printed.

T1: TbrCan2 E341A (Thermoanaerobacter brockii subsp. …, UniProt E8URK0 1-437, E341A)
T1 sequence: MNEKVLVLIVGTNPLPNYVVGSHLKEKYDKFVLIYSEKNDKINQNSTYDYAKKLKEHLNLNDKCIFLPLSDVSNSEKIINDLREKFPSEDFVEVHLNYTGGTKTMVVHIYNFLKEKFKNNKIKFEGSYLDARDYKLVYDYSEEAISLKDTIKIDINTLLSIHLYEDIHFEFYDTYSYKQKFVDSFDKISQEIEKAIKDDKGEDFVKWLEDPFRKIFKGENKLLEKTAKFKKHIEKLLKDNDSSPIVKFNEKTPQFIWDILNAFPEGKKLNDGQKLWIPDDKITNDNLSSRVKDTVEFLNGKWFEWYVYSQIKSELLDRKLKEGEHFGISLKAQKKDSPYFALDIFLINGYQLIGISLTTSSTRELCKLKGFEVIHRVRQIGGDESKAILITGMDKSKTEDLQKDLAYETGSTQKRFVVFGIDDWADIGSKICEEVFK

T2: TbrCan2 E364R (Thermoanaerobacter brockii subsp. …, UniProt E8URK0 1-437, E364R)
T2 sequence: T1 sequence with A341E, E364R


Legend:
[1] = target: T1, TbrCan2 E341A; assay: EMSA
[2] = target: T1, TbrCan2 E341A; assay: crystal structure 2.3 A
[3] = target: T1, TbrCan2 E341A; assay: crystal structure 2.4 A
[4] = target: T2, TbrCan2 E364R; assay: crystal structure
[5] = target: T1, TbrCan2 E341A; assay: crystal structure 2.0 A

Binder | binding result [1] | further results
TTTTTTTGGGTTTTTTTTTTTTTTTTTTTT (ssDNA) [T7-G3-T20 DNA (dKJ72)] | no binding | 
CCCCCC (ssDNA) [dC6] |  | binding result [2]: binds
TTTAAA (ssDNA) [TTTAAA (dKJ44)] |  | binding result [3]: binds
TTTTTTTTTTTTTTT (ssDNA) [dT15 (dKJ62)] | no binding | 
TTTTTT (ssDNA) [dT6 (dKJ46)] |  | binding result [4]: binds
AAAAAA (ssDNA) [dA6 (dKJ42)] |  | binding result [5]: binds
AAAAAAAAAAAAAAA (ssRNA) [rA15] | binds | 
UUUUUUUUUUUUUUU (ssRNA) [rU15] | no binding | 
UUUUUUUGGGUUUUUUUUUUUUUUUUUUUU (ssRNA) [U7-G3-U20 RNA (rKJ10)] | no binding | 
